Test results taken from EP0621339B1 (TAKARA SHUZO CO. LTD., dated 2001).

B1: monoclonal antibody C179 (antibody)
chain 1: EVKLVESGGGLVQPGGSLRLSCGTSGFTLTDDYMTWVRQPPGKALEWLGFIRDRANGYTTEYSASVKGRFTISRDNSQSIVYLQMNTLRVEDSATYYCARPKGYFPYAMDYWGQGT
chain 2: DIQMTQSPASQSASLGESVTITCLASQTIGTWLAWYQQKPGKSPQLLIYAATSLADGVPSRFSGSGSGTKFSFKISSLQAEDFVSYYCQQLYSTPW

What was measured:
Experiment in all cases: cell-based or functional assay
[1] = biological target: HA molecule (haemagglutinin) of A/Adachi/2/57 (H2N2) (influenza A virus, H2N2 subtype, strain A/Adachi/2/57)
[2] = biological target: HA molecule (haemagglutinin) of A/Bangkok/10/83 (H1N1) (influenza A virus, H1N1 subtype, strain A/Bangkok/10/83)
[3] = biological target: HA molecule (haemagglutinin) of A/Fukuoka/C29/85 (H3N2) (influenza A virus, H3N2 subtype, strain A/Fukuoka/C29/85)
[4] = biological target: HA molecule (haemagglutinin) of A/Ibaraki/1/90 (H3N2) (influenza A virus, H3N2 subtype, strain A/Ibaraki/1/90)
[5] = biological target: HA molecule (haemagglutinin) of A/Izumi/5/65 (H2N2) (influenza A virus, H2N2 subtype, strain A/Izumi/5/65)
[6] = biological target: HA molecule (haemagglutinin) of A/Kaizuka/2/65 (H2N2) (influenza A virus, H2N2 subtype, strain A/Kaizuka/2/65)
[7] = biological target: HA molecule (haemagglutinin) of A/Kitakyushu/159/93 (H3N2) (influenza A virus, H3N2 subtype, strain A/Kitakyushu/159/93)
[8] = biological target: HA molecule (haemagglutinin) of A/Kumamoto/1/65 (H2N2) (influenza A virus, H2N2 subtype, strain A/Kumamoto/1/65)
[9] = biological target: HA molecule (haemagglutinin) of A/Osaka/930/88 (H1N1) (influenza A virus, H1N1 subtype, strain A/Osaka/930/88)
[10] = biological target: HA molecule (haemagglutinin) of A/Sichuan/2/87 (H3N2) (influenza A virus, H3N2 subtype, strain A/Sichuan/2/87)
[11] = biological target: HA molecule (haemagglutinin) of A/Suita/1/90 (H3N2) (influenza A virus, H3N2 subtype, strain A/Suita/1/90)
[12] = biological target: HA molecule (haemagglutinin) of A/Yamagata/120/86 (H1N1) (influenza A virus, H1N1 subtype, strain A/Yamagata/120/86)
[13] = biological target: HA molecule (haemagglutinin) of A1/FM/1/47 (H1N1) (influenza A virus, H1N1 subtype, strain A1/FM/1/47)
[14] = biological target: HA molecule (haemagglutinin) of A2/Aichi/2/68 (H3N2) (influenza A virus, H3N2 subtype, strain A2/Aichi/2/68)
[15] = biological target: HA molecule (haemagglutinin) of influenza B virus B/Nagasaki/1/87 (influenza B virus, strain B/Nagasaki/1/87)
[16] = biological target: HA molecule (haemagglutinin) of A/PR/8/34 (H1N1) (influenza A virus, H1N1 subtype, strain …, UniProt P03452 18-565)
Sequence of HA molecule (haemagglutinin) of A/PR/8/34 (H1N1) (P03452 18-565): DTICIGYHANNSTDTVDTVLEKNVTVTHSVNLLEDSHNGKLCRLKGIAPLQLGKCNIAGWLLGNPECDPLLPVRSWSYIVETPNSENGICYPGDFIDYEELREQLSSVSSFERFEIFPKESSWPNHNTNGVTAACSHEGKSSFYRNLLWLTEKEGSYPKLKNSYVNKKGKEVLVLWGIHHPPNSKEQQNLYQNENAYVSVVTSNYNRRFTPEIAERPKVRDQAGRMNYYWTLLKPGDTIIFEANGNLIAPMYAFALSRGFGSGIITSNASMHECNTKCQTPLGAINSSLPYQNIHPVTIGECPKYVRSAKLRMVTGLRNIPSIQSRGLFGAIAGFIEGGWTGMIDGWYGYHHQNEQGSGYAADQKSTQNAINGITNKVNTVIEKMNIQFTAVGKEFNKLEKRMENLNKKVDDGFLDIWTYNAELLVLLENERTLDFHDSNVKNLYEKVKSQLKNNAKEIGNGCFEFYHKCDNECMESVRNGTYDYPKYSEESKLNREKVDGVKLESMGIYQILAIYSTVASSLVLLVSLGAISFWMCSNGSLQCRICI

Row | Molecule | HI (hemagglutination inhibition titer) (fold dilution of the ascites fluid) [1] | HI (hemagglutination inhibition titer) (fold dilution of the ascites fluid) [2] | HI (hemagglutination inhibition titer) (fold dilution of the ascites fluid) [3] | HI (hemagglutination inhibition titer) (fold dilution of the ascites fluid) [4] | HI (hemagglutination inhibition titer) (fold dilution of the ascites fluid) [5] | HI (hemagglutination inhibition titer) (fold dilution of the ascites fluid) [6] | HI (hemagglutination inhibition titer) (fold dilution of the ascites fluid) [7] | HI (hemagglutination inhibition titer) (fold dilution of the ascites fluid) [8] | HI (hemagglutination inhibition titer) (fold dilution of the ascites fluid) [9] | HI (hemagglutination inhibition titer) (fold dilution of the ascites fluid) [10] | HI (hemagglutination inhibition titer) (fold dilution of the ascites fluid) [11] | HI (hemagglutination inhibition titer) (fold dilution of the ascites fluid) [12] | HI (hemagglutination inhibition titer) (fold dilution of the ascites fluid) [13] | HI (hemagglutination inhibition titer) (fold dilution of the ascites fluid) [14] | HI (hemagglutination inhibition titer) (fold dilution of the ascites fluid) [15] | HI (hemagglutination inhibition titer) [16]
1 | monoclonal antibody C179 | < 32 | < 32 | < 32 | < 32 | < 32 | < 32 | < 32 | < 32 | < 32 | < 32 | < 32 | < 32 | < 32 | < 32 | < 32 | 
2 | B1 |  |  |  |  |  |  |  |  |  |  |  |  |  |  |  | < 32 fold dilution of the ascites fluid
